Data reported in patent publication US10287521B2, “Enzymatic removal of steryl glycosides” (KECLON S.A., priority 2012, dated 2019).

B1: TL: steryl glycosidase TL from T. litoralis (SEQ ID NO.: 17) (protein, listed as Thermococcus litoralis)
chain: FPEKFLFGTSTAAHQVEGDNRWNDWWYYEEIGKLPYKSGKACNHWGLYREDIELMAQLGYNAYRFSIEWSRLFPEEGKFNEDAFNRYREIIELLLEKGITPNVTLHHFTSPLWFMRKGGFLKEENLKYWEKYVDKAAELLKGVKLVATFNEPMVYVMMGYLTAYWPPFVKSPFKAFKVAANLLKAHAMAYDILHGNFDVGIVKNIPIMLPASNREKDIKAAQKADNLFNWNFLDAIWSGKYKGAFGTYKTPESDVDFIGINYYTASEVRHSWNPLKFFFDAKLADLSERKTDMGWSVYPKGIYEAIAKVSRYGKPMYITENGIATLEDEWRIEFIIQHLQYVHKALNDGFDLRGYFYWSFMDNYEWAEGFRPRFGLVEVDYTTFERRPRKSGYVYGEIAREKKIKDELLAKYGLPEL
B2: LacS: steryl glycosidase LacS from S. solfataricus (SEQ ID NO.: 2) (protein, listed as Sulfolobus solfataricus)
chain: MYSFPNSFRFGWSQAGFQSEMGTPGSEDPNTDWYKWVHDPENMAAGLVSGDLPENGPGYWGNYKTFHDNAQKMGLKIARLNVEWSRIFPNPLPRPQNFDESKQDVTEVEINENELKRLDEYANKDALNHYREIFKDLKSRGLYFILNMYHWPLPLWLHDPIRVRRGDFTGPSGWLSTRTVYEFARFSAYIAWKFDDLVDEYSTMNEPNVVGGLGYVGVKSGFPPGYLSFELSRRAMYNIIQAHARAYDGIKSVSKKPVGIIYANSSFQPLTDKDMEAVEMAENDNRWWFFDAIIRGEITRGNEKIVRDDLKGRLDWIGVNYYTRTVVKRTEKGYVSLGGYGHGCERNSVSLAGLPTSDFGWEFFPEGLYDVLTKYWNRYHLYMYVTENGIADDADYQRPYYLVSHVYQVHRAINSGADVRGYLHWSLADNYEWASGFSMRFGLLKVDYNTKRLYWRPSALVYREIATNGAITDEIEHLNSVPPVKPLRH

Columns and labels:
[1] = Steryl glycoside hydrolysis in distilled biodiesel/water mixture (Example 5); assay type: biochemical
Experimental: Steryl glycosidase activity is measured as follows: • a) Prepare a stock solution of steryl glycoside by dissolving 10 milligrams (mg) of steryl glycoside in 1 milliliter (ml) of a 3:1 mixture of tetrahydrofuran:water. • b) Add the steryl glycoside to a final concentration of 100 microgram per milliliter (μg/ml) in 1 ml of a reaction mixture containing 50 millimolar (mM) Phosphate buffer pH 6.5 and 5 μg of steryl glycosidase in an Eppendorf tube. • c) Place the reaction mixture on a shaker incubator and incubate at 80° C. for 4 h. • d) Extract the reaction mixture with 1 ml of ethyl acetate and evaporate to dryness under vacuum. • e) Re-dissolve the sample in 10 microliter (μl) of ethyl acetate • f) Analyze by thin layer chromatography (TLC) the presence of free sterols, generated as a result of steryl glycoside hydrolysis after the enzymatic treatment, using Hexane:Methanol 85:15 as running buffer and develop with ρ-anisaldehide • d) Alternatively, analyze 50 μl sample of the reaction mixture for the presence of glucose using an assay based on the Hexokinase/Glucose 6-P-dehydrogenase method: the glucose generated by steryl glycoside hydrolisis is converted by Hexokinase (or Glucokinase) into glucose 6-phosphate. Glucose 6-phosphate is further oxidized by Glucose 6-P dehydrogenase, simultaneously reducing NADP+ to NADPH. The NADPH generated is detected by fluorescence (λex: 338 nm, λem: 461 nm) and allows detection of glucose levels below 1 ppm. The assay can be adapted to microplates scale and detected in a Synergy microplate reader.
The following is an example of how to use a steryl glycosidase to remove steryl glycosides from a biodiesel mixture: • a) A 42.5 ml distilled biodiesel sample containing 100 ppm of steryl glycosides is mixed with 7.5 ml of a water solution containing 50 mM Phosphate buffer pH 6.5 and 300 μg of steryl glycosidase. […]

[2] = Steryl glycoside hydrolysis in crude biodiesel (Example 6); assay type: biochemical; settings: about 70 ppm steryl glycosides, 8 mg enzyme, 80° C., in 3 h

Row | Molecule | steryl glycoside hydrolysis compared with LacS ([1]; Bio/water+ADMUL emulsions, data not shown) | steryl glycoside hydrolysis ([1]; without the addition of any emulsifier, in 3 h, 80° C.) [%] | steryl glycoside hydrolysis in crude biodiesel [2] | steryl glycoside hydrolysis, dependence on emulsifier ([1]; distilled biodiesel/water, 80° C., with or without 5% ADMUL emulsifier)
1 | B1 | higher and faster hydrolysis | ~100 | could completely hydrolize steryl glycosides | 
2 | B2 |  |  |  | could only exhibit steryl glycoside hydrolisis when reactions were performed in the presence of ADMUL™
